Consider 2 variants from IntAct's records for PubMed 22792074.

B1: Fanconi anemia group J protein (Homo sapiens), Q9BX63 (parent)
chain: MSSMWSEYTIGGVKIYFPYKAYPSQLAMMNSILRGLNSKQHCLLESPTGSGKSLALLCSALAWQQSLSGKPADEGVSEKAEVQLSCCCACHSKDFTNNDMNQGTSRHFNYPSTPPSERNGTSSTCQDSPEKTTLAAKLSAKKQASIYRDENDDFQVEKKRIRPLETTQQIRKRHCFGTEVHNLDAKVDSGKTVKLNSPLEKINSFSPQKPPGHCSRCCCSTKQGNSQESSNTIKKDHTGKSKIPKIYFGTRTHKQIAQITRELRRTAYSGVPMTILSSRDHTCVHPEVVGNFNRNEKCMELLDGKNGKSCYFYHGVHKISDQHTLQTFQGMCKAWDIEELVSLGKKLKACPYYTARELIQDADIIFCPYNYLLDAQIRESMDLNLKEQVVILDEAHNIEDCARESASYSVTEVQLRFARDELDSMVNNNIRKKDHEPLRAVCCSLINWLEANAEYLVERDYESACKIWSGNEMLLTLHKMGITTATFPILQGHFSAVLQKEEKISPIYGKEEAREVPVISASTQIMLKGLFMVLDYLFRQNSRFADDYKIAIQQTYSWTNQIDISDKNGLLVLPKNKKRSRQKTAVHVLNFWCLNPAVAFSDINGKVQTIVLTSGTLSPMKSFSSELGVTFTIQLEANHIIKNSQVWVGTIGSGPKGRNLCATFQNTETFEFQDEVGALLLSVCQTVSQGILCFLPSYKLLEKLKERWLSTGLWHNLELVKTVIVEPQGGEKTNFDELLQVYYDAIKYKGEKDGALLVAVCRGKVSEGLDFSDDNARAVITIGIPFPNVKDLQVELKRQYNDHHSKLRGLLPGRQWYEIQAYRALNQALGRCIRHRNDWGALILVDDRFRNNPSRYISGLSKWVRQQIQHHSTFESALESLAEFSKKHQKVLNVSIKDRTNIQDNESTLEVTSLKYSTSPYLLEAASHLSPENFVEDEAKICVQELQCPKIITKNSPLPSSIISRKEKNDPVFLEEAGKAEKIVISRSTSPTFNKQTKRVSWSSFNSLGQYFTGKIPKATPELGSSENSASSPPRFKTEKMESKTVLPFTDKCESSNLTVNTSFGSCPQSETIISSLKIDATLTRKNHSEHPLCSEEALDPDIELSLVSEEDKQSTSNRDFETEAEDESIYFTPELYDPEDTDEEKNDLAETDRGNRLANNSDCILAKDLFEIRTIKEVDSAREVKAEDCIDTKLNGILHIEESKIDDIDGNVKTTWINELELGKTHEIEIKNFKPSPSKNKGMFPGFK

The variants in the assay derive from B1. Particulars: with brca1_human BRCA1, P38398.
Sequence of brca1_human BRCA1, P38398 (P38398 whole entry, looked up): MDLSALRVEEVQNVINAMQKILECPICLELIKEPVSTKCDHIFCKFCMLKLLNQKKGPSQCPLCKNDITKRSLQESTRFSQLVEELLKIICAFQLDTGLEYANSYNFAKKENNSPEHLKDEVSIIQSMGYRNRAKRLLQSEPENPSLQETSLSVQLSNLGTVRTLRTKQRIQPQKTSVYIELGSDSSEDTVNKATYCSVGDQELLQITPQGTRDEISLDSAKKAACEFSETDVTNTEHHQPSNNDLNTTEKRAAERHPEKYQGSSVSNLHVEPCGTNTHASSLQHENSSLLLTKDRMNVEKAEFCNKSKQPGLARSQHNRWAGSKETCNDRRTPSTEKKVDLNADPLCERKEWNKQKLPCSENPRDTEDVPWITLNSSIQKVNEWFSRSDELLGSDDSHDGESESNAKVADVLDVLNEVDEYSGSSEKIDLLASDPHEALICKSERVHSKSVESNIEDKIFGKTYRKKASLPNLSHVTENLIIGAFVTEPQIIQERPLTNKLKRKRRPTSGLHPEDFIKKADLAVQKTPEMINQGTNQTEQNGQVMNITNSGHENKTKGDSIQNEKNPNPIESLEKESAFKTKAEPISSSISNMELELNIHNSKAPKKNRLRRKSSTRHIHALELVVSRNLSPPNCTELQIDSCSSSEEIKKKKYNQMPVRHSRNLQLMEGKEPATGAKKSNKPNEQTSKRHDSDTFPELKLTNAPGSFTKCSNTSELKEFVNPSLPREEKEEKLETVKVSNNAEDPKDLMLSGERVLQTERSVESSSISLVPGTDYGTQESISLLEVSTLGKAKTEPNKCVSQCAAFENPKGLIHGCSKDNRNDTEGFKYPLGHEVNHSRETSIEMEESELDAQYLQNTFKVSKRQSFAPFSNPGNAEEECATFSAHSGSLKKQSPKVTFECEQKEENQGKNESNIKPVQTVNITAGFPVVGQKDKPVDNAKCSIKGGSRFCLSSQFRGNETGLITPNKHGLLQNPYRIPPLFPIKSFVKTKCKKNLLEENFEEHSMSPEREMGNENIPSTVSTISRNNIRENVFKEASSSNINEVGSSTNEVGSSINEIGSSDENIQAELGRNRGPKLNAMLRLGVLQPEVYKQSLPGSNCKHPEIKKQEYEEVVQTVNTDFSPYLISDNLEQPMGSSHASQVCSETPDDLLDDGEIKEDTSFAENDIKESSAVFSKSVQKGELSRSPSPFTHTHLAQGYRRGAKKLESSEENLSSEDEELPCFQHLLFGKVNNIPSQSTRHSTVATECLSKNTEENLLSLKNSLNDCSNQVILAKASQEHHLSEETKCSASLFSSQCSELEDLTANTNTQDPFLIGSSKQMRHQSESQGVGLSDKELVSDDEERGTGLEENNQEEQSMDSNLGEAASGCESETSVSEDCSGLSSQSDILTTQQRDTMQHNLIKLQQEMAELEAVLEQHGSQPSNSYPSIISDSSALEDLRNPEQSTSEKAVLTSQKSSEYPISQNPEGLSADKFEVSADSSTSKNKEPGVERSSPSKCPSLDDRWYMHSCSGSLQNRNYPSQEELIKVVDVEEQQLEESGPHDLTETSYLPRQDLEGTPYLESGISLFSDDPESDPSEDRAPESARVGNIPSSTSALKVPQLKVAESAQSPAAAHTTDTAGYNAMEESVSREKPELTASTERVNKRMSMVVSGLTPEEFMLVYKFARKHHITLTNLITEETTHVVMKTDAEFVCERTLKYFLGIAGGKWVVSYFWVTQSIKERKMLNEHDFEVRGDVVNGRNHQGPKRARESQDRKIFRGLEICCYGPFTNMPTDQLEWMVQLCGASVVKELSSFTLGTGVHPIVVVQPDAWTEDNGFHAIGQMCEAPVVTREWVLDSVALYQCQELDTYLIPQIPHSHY
Regarding K1249Q, the “effect of a mutation on the interaction” value is listed as “with no effect”.

K1249R: the “effect of a mutation on the interaction” value was “with no effect”.
